Laboratory results: PMC2917394

Target: Fluorescein-labeled CD4 tail peptide (residue 403-419)
Assay: other fluorescence titration; 1.0 uM fluorescein-labeled CD4 tail peptide in PBS, stirred cuvette, 25 C, 30 min incubation with Nef-His proteins at 0.01 to 10 uM in 0.5 ml; quenching of emission (excitation 492 nm, emission 516 nm) as percent reduction, average of three measurements

Substance | percent quench of the peptide's fluorescence at 10 uM Nef-His
TPCK-treated Nef (C55/A)-His (natural protein) | 9.8%
Nef (wt)-His, unmodified (natural protein) | 11.6%
TPCK-modified Nef-His (natural protein) | 4.9%
Nef (C55/A)-His, untreated (natural protein) | 10.6%
